Test results reported in patent US20140120058A1, “POLYMER CONJUGATED PROSTAGLANDIN ANALOGUES” (POLYACTIVA PTY LTD, priority 2011, published 2014).

Experiment: In vitro drug release from melt-extruded rods in isotonic phosphate buffer
Type: physicochemical
Conditions: rod-shaped samples, isotonic phosphate buffer pH 7.4, 37° C.; for Release Rate (ng of free acid Latanoprost/mg polymer drug conjugate/24 hours): continuous stirring, HPLC-UV
Protocol: Following in vitro release guidelines recommended by the International Organisation of Standardisation, rod-shaped samples prepared by melt extrusion, were suspended in wire baskets which were immersed in isotonic phosphate buffer (IPB), adjusted to pH 7.4 using orthophosphoric acid and containing 0.01% sodium azide as a preservative, and incubated at 37° C. with continuous stirring. Aliquots of the receptor solution were removed for analysis at predetermined time points until drug release from the polymer no longer increased.
The amount of prostaglandin drug released from the rods at the various time points was quantified by reverse phase high performance liquid chromatography (HPLC) with a UV absorbance detector and analyte separation was performed on a C18 column either isocratically or with a gradient system using a degassed mobile phase.
Using the above method, the rate of release of the prostaglandin drug latanoprost from various polymer-drug conjugates was determined.

| Substance | Period of zero-order release [days] | Release Rate (ng of free acid Latanoprost/mg polymer drug conjugate/24 hours) |
| --- | --- | --- |
| Polyurethane of (Z)-1,3-dihydroxypropan-2-yl 7-((1R,2R,3R,5S)-3,5-dihydroxy-2-((R)-3-hydroxy-5-phenylpentyl)cyclopentyl)hept-5-enoate and DVDIP [Example 12] | 61 | 637 ng of free acid Latanoprost/mg |
| Polyurethane of (Z)-3-hydroxy-2-(hydroxymethyl)-2-methylpropyl 7-((1R,2R,3R,5S)-3,5-dihydroxy-2-((R)-3-hydroxy-5-phenylpentyl)cyclopentyl)hept-5-enoate and DVDIP [Example 16] | 61 | 138 ng of free acid Latanoprost/mg |
| Polyurethane of (Z)-1,3-dihydroxypropan-2-yl 7-((1R,2R,3R,5S)-3,5-dihydroxy-2-((R)-3-hydroxy-5-phenylpentyl)cyclopentyl)hept-5-enoate and ELDI [Example 10] | 61 | 899 ng of free acid Latanoprost/mg |
